In publication PMC8719716:

Legend:
[1] = target: Plk1 (UniProt P70032); assay: reciprocal co-IP of tagged proteins, embryo lysates; conditions: reference: wild type CEP97; sites S634,S643,S649,S653
[2] = target: Plk1 PB1 and PB2 domains (UniProt P70032); assay: as above; conditions: reference: wild type CEP97; sites S634,S643,S649,S653

- binding against the reference [1]: weaker
- binding against the reference [2]: lost
Substance: CEP97 (from UniProt Q6GPJ8) CEP97 SA (S634A, S643A, S649A, S653A)
